# Reference: patent US20260234241A1 (SHANGHAI QILU PHARMACEUTICAL RESEARCH AND DEVELOPMENT CENTRE, published 2026)
# Where two headings read alike, the source gives them in different places.
# T1: human BCMA (on cells) (human, UniProt Q02223 1-184)
# T1 construct: Full length, on transfected CHOK1 cells; also used as the target of the BCMA/CD3 bispecific Teclistamab on NCI-H929 and RPMI8226 cells; also called Human BCMA CHOK1
# T1 sequence: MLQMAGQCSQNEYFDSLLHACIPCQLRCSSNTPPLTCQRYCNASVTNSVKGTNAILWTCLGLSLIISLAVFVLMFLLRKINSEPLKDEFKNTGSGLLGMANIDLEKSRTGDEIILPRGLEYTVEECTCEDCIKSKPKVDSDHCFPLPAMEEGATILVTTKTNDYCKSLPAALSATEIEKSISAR
# Experiments:
# [1] = biological target: T1, human BCMA (on cells); assay: FACS, human BCMA-CHOK1 cells, anti-human IgG Fc PE secondary, MFI
# [2] = biological target: T2, cynomolgus monkey BCMA (on cells) (cynomolgus monkey, UniProt Q02223 1-184 (human entry)); assay: FACS, cynomolgus monkey BCMA-CHOK1 cells, anti-human IgG Fc PE secondary, MFI
# T2 construct: also called cyno-BCMA; cyno BCMA CHOK1
# T2 sequence (Q02223 other isoform, or with tags, fused parts or gaps): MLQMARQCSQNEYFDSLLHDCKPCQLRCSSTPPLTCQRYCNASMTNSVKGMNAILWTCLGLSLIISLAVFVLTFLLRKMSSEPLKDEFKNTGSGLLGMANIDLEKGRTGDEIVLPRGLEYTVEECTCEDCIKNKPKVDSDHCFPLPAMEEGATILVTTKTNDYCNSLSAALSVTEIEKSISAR
# [3] = biological target: T2, cynomolgus monkey BCMA (on cells); assay: FACS on cynomolgus BCMA-CHOK1 cells
# [4] = biological target: T1, human BCMA (on cells); assay: FACS on human BCMA-CHOK1 cells
# [5] = biological target: T1, human BCMA (on cells); assay: FACS, human BCMA-CHOK1 cells, anti-human IgG Fc PE secondary, MFI; remark: listed apart in the source
binder,measurement,setting,value
"19CH-16H2L2 (antibody, IgG1, V domains shown, also called humanized anti-BCMA antibody (19CH-16H2L2)) VH: QVQLVQSGAEVKKPGASVKVSCKASGFTFRSSYISWVRQAPGQGLEWIAWIYAGSGNTDYNQKFTGRVTMTVDTSTSTVYMELSSLRSEDTAVYYCARHYDPPHYFDYWGQGTLVTVSS VL: DIQLTQSPSSLSASVGDRVTITCSASSGVSHMHWYQQKPGKAPKRWIYDTSKLTSGVPSRFSGSGSGTDFTLTISSLQPEDFATYYCQQWSRNPWTFGQGTKVEIK",EC50 (read off the curve),[1],~1 nM
same,EC50 (read off the curve),[2],~3 nM
"19CH-16H2L2-QT (antibody, V domains shown) VH: QVQLVQSGAEVKKPGASVKVSCKASGFTFRSSYISWVRQAPGQGLEWIAWIYAGSGQTDYNQKFTGRVTMTVDTSTSTVYMELSSLRSEDTAVYYCARHYDPPHYFDYWGQGTLVTVSS VL: DIQLTQSPSSLSASVGDRVTITCSASSGVSHMHWYQQKPGKAPKRWIYDTSKLTSGVPSRFSGSGSGTDFTLTISSLQPEDFATYYCQQWSRNPWTFGQGTKVEIK",EC50,[3],9.05 nM
same,EC50,[4],7.76 nM
"19CH-16 (antibody, IgG1, V domains shown, also called anti-BCMA chimeric antibody (19CH-16) derived from mouse hybridoma) VH: QGQMQQSGAELVKPGTSVKLSCKTSGFTFRSSYISWLQQKPGQSLEWIAWIYAGSGNTDYNQKFTGKAQLTVDTSSSTAYMQFSSLTTEDSAIYYCARHYDPPHYFDYWGQGTTLTVSS VL: QIVLTQSPAIMSASPGEKVTMTCSASSGVSHMHWYQQKSGTSPKRWIYDTSKLTSGVPTRFSGTGSGTSYSLSISSMEAEDAATYYCQQWSRNPWTFGGGTKLEIK",EC50 (read off the curve),[5],~2 nM
